Reference: PMC4552281

Target: FcBP-encapsulin (Fc-binding peptide inserted encapsulin protein cage nanoparticle) (Thermotoga maritima) (UniProt Q9WZP2)
Experiment: SEC; elution of purified FcBP-encapsulin compared with encapsulin

stoichiometry N: 60
Substance: FcBP-encapsulin (Fc-binding peptide inserted encapsulin protein cage nanoparticle) (from UniProt Q9WZP2 1-138; Q9WZP2 139-265) (designed binder)
